Assay results taken from patent US20200369765A1 (INNATE PHARMA, published 2020).
One block for each binder: values may come before it.

What was measured:
[1] = target: T1, Human Siglec-9 Ig-like C2-type domain 1 (human); assay: flow cytometry, HEK293T cells expressing single Siglec-9 domains
T1 construct: expressed on HEK293T cells
T1 chain: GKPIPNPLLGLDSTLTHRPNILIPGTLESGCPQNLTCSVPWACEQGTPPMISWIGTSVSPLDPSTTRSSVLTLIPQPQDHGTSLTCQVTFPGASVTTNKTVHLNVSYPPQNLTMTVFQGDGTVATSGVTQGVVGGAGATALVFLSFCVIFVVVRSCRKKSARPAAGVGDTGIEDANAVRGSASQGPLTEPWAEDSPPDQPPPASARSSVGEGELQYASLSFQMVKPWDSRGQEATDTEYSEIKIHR

Siglec-7 Fc protein = target: T2, Siglec-7 Fc protein (human); assay: ELISA, blocking: Siglec-7 Fc captured on protein A, mAb dilution series, then biotinylated polymer Sia2, streptavidin-peroxidase (top panel); partial inhibition
T2 construct: Produced in CHO cells; also called human Siglec-7 Fc
T2 sequence (chain, as listed by the source limits assumed): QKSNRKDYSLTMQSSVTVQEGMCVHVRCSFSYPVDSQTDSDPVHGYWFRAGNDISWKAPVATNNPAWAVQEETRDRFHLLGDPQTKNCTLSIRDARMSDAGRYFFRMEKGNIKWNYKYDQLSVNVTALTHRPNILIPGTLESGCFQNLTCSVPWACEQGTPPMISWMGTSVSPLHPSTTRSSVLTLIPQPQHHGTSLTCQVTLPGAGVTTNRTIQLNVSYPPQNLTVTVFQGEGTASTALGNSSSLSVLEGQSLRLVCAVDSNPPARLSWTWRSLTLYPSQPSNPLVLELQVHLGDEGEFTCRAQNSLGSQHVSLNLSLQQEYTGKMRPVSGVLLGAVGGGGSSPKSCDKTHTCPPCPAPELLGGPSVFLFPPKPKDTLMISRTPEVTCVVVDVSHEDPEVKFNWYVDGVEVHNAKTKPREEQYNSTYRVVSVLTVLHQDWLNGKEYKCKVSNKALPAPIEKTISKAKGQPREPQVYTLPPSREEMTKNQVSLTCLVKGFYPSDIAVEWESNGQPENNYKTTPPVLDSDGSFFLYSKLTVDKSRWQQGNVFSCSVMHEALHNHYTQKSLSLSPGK
Procedure: (§1) Blocking of the interaction between Siglec-7 and -9 and sialylated ligands by anti Siglec-7/9 antibodies was tested on ELISA assays. Siglec proteins were Siglec-7 human Fc and Siglec-9 Human Fc recombinant proteins, and ligands were biotinylated polymers with sialylated trisaccharides (Neu5Aca2-3Galb1-4GcNAcb-PAA-biotin Glycotech #01-077 referred to as “Sia1” and 6′-Sialyllactose-PAA-biotin Glycotech #01-039 (referred to as “Sia2”). Briefly, Protein A was coated on ELISA plates over night at 4° C. After 3 washes and saturation, Siglec-7 Fc and Siglec-9 Fc were added at 0.8 μg/well at RT for 1H30. After 3 washes, mAbs were added at 20 ug/ml and a series of dilution of 1:5. After 3 washes, biotinylated sialylated polymers were added for 3 hours at room temperature. After 3 washes, Streptavidin-Peroxidase (Beckman) was added at 1:1000. […] The absorbance was read at 450 nm.

Siglec-9 Fc protein = target: T3, Siglec-9 Fc protein (human); assay: ELISA, blocking: Siglec-9 Fc captured on protein A, mAb dilution series, then biotinylated polymer Sia1 (Neu5Aca2-3Galb1-4GlcNAcb-PAA-biotin), streptavidin-peroxidase (top panel)
T3 construct: Produced in CHO cells; also called human Siglec-9 Fc
T3 sequence (chain, as listed by the source limits assumed): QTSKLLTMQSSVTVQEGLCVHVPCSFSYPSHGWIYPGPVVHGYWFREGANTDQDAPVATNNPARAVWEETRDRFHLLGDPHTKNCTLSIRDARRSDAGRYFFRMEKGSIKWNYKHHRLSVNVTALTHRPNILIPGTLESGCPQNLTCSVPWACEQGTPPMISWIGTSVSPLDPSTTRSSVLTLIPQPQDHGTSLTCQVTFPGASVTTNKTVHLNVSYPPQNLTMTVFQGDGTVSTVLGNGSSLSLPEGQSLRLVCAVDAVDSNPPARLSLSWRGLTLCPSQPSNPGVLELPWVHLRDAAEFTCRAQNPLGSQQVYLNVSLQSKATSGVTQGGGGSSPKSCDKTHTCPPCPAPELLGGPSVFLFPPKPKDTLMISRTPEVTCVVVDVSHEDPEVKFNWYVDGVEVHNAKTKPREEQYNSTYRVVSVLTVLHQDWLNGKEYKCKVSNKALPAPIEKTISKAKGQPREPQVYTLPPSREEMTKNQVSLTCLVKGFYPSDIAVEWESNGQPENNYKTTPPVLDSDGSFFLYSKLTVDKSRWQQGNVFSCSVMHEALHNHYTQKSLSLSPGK
Procedure: as §1

Human Siglec-9 [2] = target: T4, Human Siglec-9 (human, UniProt Q9Y336 18-463); assay: flow cytometry titration on moDC vs neuraminidase-treated moDC
T4 construct: On transfected CHO cells; also on YTS and KHYG-1 transfectants, primary NK cells and moDC; also called huSiglec-9; CD329
T4 sequence (Q9Y336 18-463): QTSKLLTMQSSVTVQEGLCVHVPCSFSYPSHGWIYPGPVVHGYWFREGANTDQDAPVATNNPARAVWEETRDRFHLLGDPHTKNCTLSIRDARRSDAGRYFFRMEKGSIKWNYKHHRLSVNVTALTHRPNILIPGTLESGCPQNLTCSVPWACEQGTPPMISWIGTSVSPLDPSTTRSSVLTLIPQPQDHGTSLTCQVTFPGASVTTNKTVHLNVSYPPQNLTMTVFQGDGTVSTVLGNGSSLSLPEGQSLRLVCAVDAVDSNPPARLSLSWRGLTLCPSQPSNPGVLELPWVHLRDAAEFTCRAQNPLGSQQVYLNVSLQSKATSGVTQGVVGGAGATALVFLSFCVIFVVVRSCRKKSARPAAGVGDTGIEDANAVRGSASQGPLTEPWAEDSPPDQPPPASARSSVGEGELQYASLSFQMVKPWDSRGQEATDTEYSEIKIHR
Procedure: (§2) moDC were desialylated for 2 hours with 25 mU neuraminidase (Roche Diagnostics).
(§3) Binding on moDCs and neuraminidase treated moDCs was tested in a titration experiment by flow cytometry. Cells were incubated 1h in Staining Buffer (SB) with primary antibodies at 10 ug/ml and a series of dilution of 1:10. They were washed two times with SB, then incubated 30 min with a Goat F(ab′)² Anti-Human IgG (Fc) PE (Jackson ImmunoResearch), and washed twice with SB.

Human Siglec-9 [3] = target: T4, Human Siglec-9; assay: flow cytometry titration on neuraminidase-treated moDCs, goat F(ab')2 anti-human IgG (Fc) PE; table under the right panel
Procedure: as §2, §3

Human Siglec-9 [4] = target: T4, Human Siglec-9; assay: flow cytometry on fresh purified human NK cells, mean of 4 donors
Procedure: Binding of antibodies on fresh purified human NK cells was tested by titration experiment by flow cytometry. Cells were incubated 1h in Staining Buffer (SB) with primary antibodies at 10 ug/ml and a series of dilution of 1:10. They were washed three times with SB, then incubated 30 min with a Goat F(ab′)² Anti-Human IgG (Fc) PE (Jackson ImmunoResearch). Stainings were acquired on a BD FACS Canto II and analyzed using the FlowJo software. EC₅₀ values are shown in the table below in μg/ml (calculated using a 4-parameter logistic fit).

Human Siglec-7 = target: T5, Human Siglec-7 (human, UniProt Q9Y286 19-467); assay: flow cytometry, CHO transfectants
T5 construct: Expressed on transfected CHO cells; also called huSiglec-7; CD328
T5 sequence (Q9Y286 19-467): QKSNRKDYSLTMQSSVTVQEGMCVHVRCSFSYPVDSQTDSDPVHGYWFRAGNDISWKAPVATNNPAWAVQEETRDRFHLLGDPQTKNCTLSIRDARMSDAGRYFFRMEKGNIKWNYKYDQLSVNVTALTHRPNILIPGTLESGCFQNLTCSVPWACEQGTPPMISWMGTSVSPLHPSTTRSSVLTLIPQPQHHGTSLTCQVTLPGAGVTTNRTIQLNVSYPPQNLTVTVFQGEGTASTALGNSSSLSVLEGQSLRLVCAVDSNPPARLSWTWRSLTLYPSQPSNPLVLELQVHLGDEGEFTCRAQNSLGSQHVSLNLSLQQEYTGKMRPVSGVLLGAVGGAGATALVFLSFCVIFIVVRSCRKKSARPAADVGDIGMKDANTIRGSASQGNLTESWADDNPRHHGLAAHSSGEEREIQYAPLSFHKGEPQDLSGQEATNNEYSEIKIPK

Human Siglec-9 mutant M3 = target: T6, Human Siglec-9 mutant M3 (human, UniProt Q9Y336 18-463); assay: flow cytometry, HEK293T transfectants
T6 construct: Expressed on HEK293T cells; also called Mutant 3
T6 sequence (Q9Y336 other isoform, or with tags, fused parts or gaps mutant): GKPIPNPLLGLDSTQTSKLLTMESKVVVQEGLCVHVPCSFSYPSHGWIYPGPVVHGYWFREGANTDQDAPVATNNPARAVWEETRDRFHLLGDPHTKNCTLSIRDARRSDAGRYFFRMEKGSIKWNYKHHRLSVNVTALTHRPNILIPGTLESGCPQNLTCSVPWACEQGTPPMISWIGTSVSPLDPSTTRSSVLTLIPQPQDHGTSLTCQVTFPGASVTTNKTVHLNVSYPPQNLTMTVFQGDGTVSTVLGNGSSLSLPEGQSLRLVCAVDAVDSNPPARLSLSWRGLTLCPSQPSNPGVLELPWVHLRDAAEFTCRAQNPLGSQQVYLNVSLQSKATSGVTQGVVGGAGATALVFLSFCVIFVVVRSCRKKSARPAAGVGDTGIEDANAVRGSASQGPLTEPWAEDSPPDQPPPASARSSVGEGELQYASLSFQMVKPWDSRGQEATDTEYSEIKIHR

[5] = target: T7, Human Siglec-9 mutant M14 (human, UniProt Q9Y336 18-463); assay: flow cytometry, HEK293T transfectants
T7 construct: Expressed on HEK293T cells; also called Mutant 14
T7 sequence (Q9Y336 other isoform, or with tags, fused parts or gaps mutant): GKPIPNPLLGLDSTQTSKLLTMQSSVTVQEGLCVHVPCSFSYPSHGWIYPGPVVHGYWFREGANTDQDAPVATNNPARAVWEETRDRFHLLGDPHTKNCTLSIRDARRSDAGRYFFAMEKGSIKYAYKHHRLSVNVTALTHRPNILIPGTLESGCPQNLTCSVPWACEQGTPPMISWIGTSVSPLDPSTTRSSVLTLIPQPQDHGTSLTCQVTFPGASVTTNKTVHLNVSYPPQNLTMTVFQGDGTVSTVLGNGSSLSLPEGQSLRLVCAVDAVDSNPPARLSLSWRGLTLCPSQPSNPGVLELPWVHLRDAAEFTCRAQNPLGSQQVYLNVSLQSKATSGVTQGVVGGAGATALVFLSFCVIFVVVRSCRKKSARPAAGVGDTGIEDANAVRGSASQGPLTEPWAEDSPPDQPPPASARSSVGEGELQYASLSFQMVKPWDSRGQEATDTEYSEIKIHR

Human Siglec-9 mutant M6 = target: T8, Human Siglec-9 mutant M6 (human, UniProt Q9Y336 18-463); assay: flow cytometry, HEK293T transfectants
T8 construct: Expressed on HEK293T cells; also called Mutant 6
T8 sequence (Q9Y336 other isoform, or with tags, fused parts or gaps mutant): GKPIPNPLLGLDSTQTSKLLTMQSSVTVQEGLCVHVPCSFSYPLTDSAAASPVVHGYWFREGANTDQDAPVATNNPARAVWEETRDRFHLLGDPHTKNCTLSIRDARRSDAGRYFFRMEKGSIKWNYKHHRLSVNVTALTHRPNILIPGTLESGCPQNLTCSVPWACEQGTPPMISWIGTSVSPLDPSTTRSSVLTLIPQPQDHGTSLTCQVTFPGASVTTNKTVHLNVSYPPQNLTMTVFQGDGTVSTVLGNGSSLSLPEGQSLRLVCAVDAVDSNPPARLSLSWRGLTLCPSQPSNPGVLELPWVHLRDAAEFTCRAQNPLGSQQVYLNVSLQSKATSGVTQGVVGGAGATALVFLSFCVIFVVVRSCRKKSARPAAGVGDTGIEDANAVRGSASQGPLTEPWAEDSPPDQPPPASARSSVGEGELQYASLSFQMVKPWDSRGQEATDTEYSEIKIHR

[6] = target: T9, Human Siglec-9 mutant M15 (human, UniProt Q9Y336 18-463); assay: flow cytometry, HEK293T transfectants
T9 construct: Expressed on HEK293T cells; also called Mutant 15
T9 sequence (Q9Y336 other isoform, or with tags, fused parts or gaps mutant): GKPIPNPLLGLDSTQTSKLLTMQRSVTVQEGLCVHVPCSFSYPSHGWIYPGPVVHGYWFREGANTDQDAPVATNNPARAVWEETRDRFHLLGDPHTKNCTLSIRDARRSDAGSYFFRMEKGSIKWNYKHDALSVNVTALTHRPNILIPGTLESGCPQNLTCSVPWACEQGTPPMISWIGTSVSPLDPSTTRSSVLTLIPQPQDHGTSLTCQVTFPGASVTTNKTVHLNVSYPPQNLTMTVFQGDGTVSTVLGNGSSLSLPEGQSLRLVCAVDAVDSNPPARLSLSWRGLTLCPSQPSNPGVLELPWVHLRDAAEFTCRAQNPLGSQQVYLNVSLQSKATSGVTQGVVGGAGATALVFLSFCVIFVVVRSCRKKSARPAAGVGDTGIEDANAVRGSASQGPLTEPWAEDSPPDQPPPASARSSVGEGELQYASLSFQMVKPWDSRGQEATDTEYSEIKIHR

Human Siglec-9 mutant M9 = target: T10, Human Siglec-9 mutant M9 (human, UniProt Q9Y336 18-463); assay: flow cytometry, HEK293T transfectants
T10 construct: Expressed on HEK293T cells; also called Mutant 9

Human Siglec-9 mutant M7 = target: T11, Human Siglec-9 mutant M7 (human, UniProt Q9Y336 18-463); assay: flow cytometry, HEK293T transfectants
T11 construct: Expressed on HEK293T cells; also called Mutant 7
T11 sequence (Q9Y336 other isoform, or with tags, fused parts or gaps mutant): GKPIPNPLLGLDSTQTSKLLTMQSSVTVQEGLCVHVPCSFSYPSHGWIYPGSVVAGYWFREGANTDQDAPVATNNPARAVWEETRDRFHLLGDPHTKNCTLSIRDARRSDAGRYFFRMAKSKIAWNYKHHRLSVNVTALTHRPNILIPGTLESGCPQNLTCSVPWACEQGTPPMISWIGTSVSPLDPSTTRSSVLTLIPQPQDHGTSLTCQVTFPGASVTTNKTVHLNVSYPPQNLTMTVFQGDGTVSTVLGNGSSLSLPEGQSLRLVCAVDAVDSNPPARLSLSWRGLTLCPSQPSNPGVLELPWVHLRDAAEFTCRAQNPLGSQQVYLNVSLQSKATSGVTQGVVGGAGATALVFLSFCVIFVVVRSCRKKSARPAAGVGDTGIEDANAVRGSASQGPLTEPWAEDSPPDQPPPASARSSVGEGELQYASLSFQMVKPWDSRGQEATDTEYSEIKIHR

Human Siglec-9 mutant M5 = target: T12, Human Siglec-9 mutant M5 (human, UniProt Q9Y336 18-463); assay: flow cytometry, HEK293T transfectants
T12 construct: Expressed on HEK293T cells; also called Mutant 5
T12 sequence (Q9Y336 other isoform, or with tags, fused parts or gaps mutant): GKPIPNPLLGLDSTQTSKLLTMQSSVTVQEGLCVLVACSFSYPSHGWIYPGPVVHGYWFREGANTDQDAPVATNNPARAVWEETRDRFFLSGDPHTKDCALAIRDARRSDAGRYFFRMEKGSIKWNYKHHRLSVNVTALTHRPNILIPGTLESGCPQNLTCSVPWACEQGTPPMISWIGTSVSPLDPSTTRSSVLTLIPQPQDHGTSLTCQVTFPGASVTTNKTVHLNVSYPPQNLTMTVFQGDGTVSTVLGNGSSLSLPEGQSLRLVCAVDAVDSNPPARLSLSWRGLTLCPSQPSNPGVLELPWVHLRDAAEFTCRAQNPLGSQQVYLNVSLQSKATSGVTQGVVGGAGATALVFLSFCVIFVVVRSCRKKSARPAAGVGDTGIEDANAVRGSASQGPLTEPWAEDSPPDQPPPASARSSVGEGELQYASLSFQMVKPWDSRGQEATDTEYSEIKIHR

Human Siglec-9 mutant M2 = target: T13, Human Siglec-9 mutant M2 (human, UniProt Q9Y336 18-463); assay: flow cytometry, HEK293T transfectants
T13 construct: Expressed on HEK293T cells; also called Mutant 2

binding result [1]: binds | IC50 (read off the curve) (Siglec-7 Fc protein): ~1 µg/mL | binding result (Siglec-9 Fc protein): binds
B1: mAb5 (antibody, human IgG1, V domains shown)
VH: EIQLQQSGPELEKPGASVKISCKASGYSFSDYNMNWVKQSNGKSLEWIGNIDPYYGATSYNQRFKGKATLTVDKSSSTAYMQLKSLTSEDSAVYYCARGDSLFAYWGHGTLVTVSA
VL: DIVMTQSQEFMSTSLGDRVSVTCKASQNVGTNVAWYQQKPGQSPKALLYSASSRYSGVPDRFTGSGSGTDFTLTISNVQSEDLAEYFCQQYITYPYTFGGGTKLEIK

binding result [1]: binds | binding result (Siglec-9 Fc protein): binds
B2: mAb6 (antibody, human IgG1, V domains shown)
VH: EIQLQQSGPELEKPGASVKISCKASGYSFSDYNMNWVKQSNGKSLEWIGNIDPYYGATSYNQRFKGKATLTVDKSSSTAYMQLKSLTSEDSAVYYCARGDSLFAYWGQGTLVTVSA
VL: DIVMTQSQEFMSTSLGDRVSVTCKASQNVGTNVAWYQQKPGQSPKALLYSASSRYSGVPDRFTGSGSGTDFTLTINNMQSEDLAEYFCQQYITYPYTFGGGTKLEIK

binding result [1]: binds | IC50 (read off the curve) (Siglec-7 Fc protein): ~2 µg/mL | binding result (Siglec-9 Fc protein): binds
B3: mAb4 (antibody, human IgG1, V domains shown)
VH: DVQLVESGGDLVKPGGSLKLSCAASGFAFSSYDMSWVRQSPEKRLEWIAHIGSGGGNIYYPDTVKGRFTISRDNAKNTLYLQMRSLKSEDTAMYYCARLIFTTGFYGMDYWGQGTSVTVSS
VL: DIQMTQTTSSLSASLGDRVTISCRASQDISSYLNWYQQKPDGTIKLLIYYTSRLHSGVPSRFSGSGSGTDYSLTISNLDQDDIATYFCQQGNALPWTFGGGTKLEIK

fold change of EC50 after neuraminidase treatment of moDC (Human Siglec-9 [2]): 10 fold | EC50 (Human Siglec-9 [3]): 0.0274 µg/mL | EC50 (Human Siglec-9 [4]): 0.09 µg/mL | binding result (Human Siglec-7): no binding | binding result (Human Siglec-9 mutant M3): binds | binding result [5]: binds | binding result (Human Siglec-9 mutant M6): binds | binding result [6]: binds | binding result (Human Siglec-9 mutant M9): binds | binding result (Human Siglec-9 mutant M7): binds | binding result (Human Siglec-9 mutant M5): binds | binding result (Human Siglec-9 mutant M2): binds
B4: mAbC (antibody, human IgG1, V domains shown)
VH: QIQLVQSGPELKKPGETVKISCKASGYTFTNYEMNWVKEAPGKGLKWMGWINTYTGESTYADDFKGRFAFSLETSASTVYLQINNLKDEDVATYFCVRDDYGRSYGFAYWGQGTLVTVSA
VL: NIVLTQSPASLTVSLGQRANISCRASESVDSYGNSFMHWYQQKPGQPPKLLIYLASKLESGVPARFSGSGSRTDFTLTIDPVETDDAATYYCHQNNEDPPWTFGGGTKLEIK
